Measurements taken from the nanobody polyreactivity screen of Harvey et al. (2022).

Assay: yeast display, Sf9 membrane polyspecificity reagent, FACS + sequencing; frameworks hold sequencing errors
Summary of the method: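 Polyreactivity labels are assigned by the sorting gate from which each nanobody was recovered. The gates were low and high (top ~1%), set on anti-HA fluorescence for expression and streptavidin fluorescence for reagent binding. Before sorting, galactose-induced (36–48 hours) yeast display cells were stained for 1 hour at 4 °C with 10% biotinylated, detergent-solubilized Sf9 membrane reagent.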
In the case of “QVQLVESGGALVQAGGSLRLSCAASGRTFYSYAMGWYRQAPGKERELVAAINRGASTYYADSVKGRFTISRDNAKNTDYFQMKSLKPEDTAFYYCGARLYGRHYGYWGQGTQVTVSS”, the “polyreactivity (PSR sort gate)” value is reported as “high polyreactivity”. For “QVQLVESGGALVQAGGSLRLSCAASGSIFKKYAMGWYRPAPGKERELVAAITRGTYYADSVKGRFTISRVNAKNTVYLQMNSLKPEDTAVYYCNREYWGRGYYRVRGEYDYWGQGTQFTVSS”, the “polyreactivity (PSR sort gate)” value was “low polyreactivity”. For “QVQLVESGGALVQAGGSLRLSCAASGSIFPANPMGWYRQAPGKEWEFVAAINWSTGTTYYADSVKGRFTISRDNGKNTVYLQMNSLKPEDTAVYYFNASDQAKYDYWGQGTQVTVSS”, the “polyreactivity (PSR sort gate)” value was “low polyreactivity”. For “QVQLVESGGALVQAGGSLRLSCAASGSIFRWTAMGWYRQAPGKERVLVAAISKSGASTYYADSVKGRFTISRDNAKNTVYLQMNSLKPEDTAVYYCNRVYLGYFRYDYWGQGTQVTVSS”, the “polyreactivity (PSR sort gate)” value was “high polyreactivity”. With “QVQLVESGGALVQAGGSLRLSCAASGSIFSEYAMGWYRQAPGKERELVAAISRSGGTTYYADSVKGRFTISRDNAKNTVYLQMNSLKPEDTAVYYCAARYFRGSYPMGYWGQGTQVTVSS” the “polyreactivity (PSR sort gate)” value was “high polyreactivity”. For “QVQLVESGGALVQAGGSLRLSCAASGSIFSSYAMGWYRQAPGKERELVAAISGSGDSTYYADSVKGRFTISRDNAKNTVYLQMNSLKPEDTAVYYCNAVYAFNGYDYWGQGTQVTVSS”, the “polyreactivity (PSR sort gate)” value was “low polyreactivity”. For “QVQLVESGGALVQAGGSLRLSCAASGSTFSYNAMGWYSQAPGKERELVAAISSRGSSTYYADSVKGRFTISRDNAKNTVYFQINSLKPEDTAVYDCAARSYWGGLRYDYWGQGTQVTVSS”, the “polyreactivity (PSR sort gate)” value was “high polyreactivity”. For “QVQLVESGGALVQAGGSLRLSCAASGSTVKYYAMGWYRQAPGKERELVATSSSGGSTNYADSVKRRFTISRDNAKNTVYLQRNSLKPEDTAVYYCAAYSTWRRIQFWGYNYWGQGTQVTVSS”, the “polyreactivity (PSR sort gate)” value was “high polyreactivity”. In the case of “QVQLVESGGALVQAGGSLRLSSAASVSIFTINAMGWYRQAPGKERELVAAISWSGAHTYYADSVKGRFTISRDNAKNTVYVQMNSLKPEDTAVYYCATGYNYLDRNTGYVHRFDYWGQGTQVTVSS”, the “polyreactivity (PSR sort gate)” value is reported as “low polyreactivity”. For “QVQLVESGGALVQARGSLRLSCAASGRIFGGNAMGWYRHAPGKERDLVADISYGGGSTNYADSVKGRFTISRDNAKNTVYLQMNSLKPADTAVYYCARDAWNTDGAYIGGDYDYWGQGTKVTVSS”, the “polyreactivity (PSR sort gate)” value was “low polyreactivity”. In the case of “QVQLVESGGALVQARGSLRLSCAASGRTFQIYAKGWDRQGHGKEMELVARITGVGSTNYADSVKGRFTISRDNAKNTVYLQMNSLKPEDTAVYYCAAYWILNNYEMYYWGQGTQVTVSS”, the “polyreactivity (PSR sort gate)” value is reported as “low polyreactivity”. For “QVQLVESGGCIVQAGGSLRLSCAASGITFLSNPMGWYSQAPGKERELVAAIDCRGDSTYYADSVKGRFTISRDNAKNTVYLQMNSLKPEDTAVYYCNADISGSGQWDGYDYWGQGTQVSVSS”, the “polyreactivity (PSR sort gate)” value was “low polyreactivity”. For “QVQLVESGGCIVQAGGSLRLSCADSGSIFDWYAMVWYRQAPGKERELVAAINEGGGSTYYADSVKGRFTISRDNANNTVYLQMNSLKPEDHAVYYCAAGDYYLQDNYWGQGTQVTVSS”, the “polyreactivity (PSR sort gate)” value was “low polyreactivity”. With “QVQLVESGGCLVKAGGSLRLSCAASGSTFSDNAIGWSRQAPGKERELVAAINYSDGSTNYADSVKGRFTISRDNAKNTVYLQINSQQPEDTAVYYCAVDIYFWSYGWWGPYDYWGQGTQVTVSS” the “polyreactivity (PSR sort gate)” value was “low polyreactivity”. In the case of “QVQLVESGGCLVPAGGSLRLSCAASGSIFSYYAMGWYRQAPGKERELVAAITVRGGSTYYADSVKGRFTISRDNAKNTVYLQMNSLKPEDTAVYYCAADWLDESFSYGPYYYWGQGTQVTVSS”, the “polyreactivity (PSR sort gate)” value is reported as “low polyreactivity”. For “QVQLVESGGCLVQAGGILRLSCAASGSTFWIYAMGWYRQAPGKERELVAAITLRSGSTYYADSVKGRYTISRDNAKNTVFLQMNSLKPEDTAVYYCATDSWGVDRPNYNYWGQGTQVTVSS”, the “polyreactivity (PSR sort gate)” value was “low polyreactivity”. In the case of “QVQLVESGGCLVQAGGRLRLSCAASGFIFGRYAMGWYRQAPGKERELVAAITWSGGSTYYADSVKGRFTISRDNAKNTVYLQMNSLKPQDTAVYYCAAYAYAPRDGYGWRKYRFYYWGQGTQVTVSS”, the “polyreactivity (PSR sort gate)” value is reported as “high polyreactivity”. For “QVQLVESGGCLVQAGGRLRLSCAASGSTFRSYTMVWYRQAPGKERELVADINGTGGSTYYADSVKGRFTISRDNAKNTVYLHMNSLKPEDTAVYYCAADGYFRTVTSGWALRMGYWGQGTQVTVSS”, the “polyreactivity (PSR sort gate)” value was “high polyreactivity”. For “QVQLVESGGCLVQAGGSHRLSCAASGRTFGYNAMGWYSQAPRKERELVAVIRSGGSTYYADSVKGRYTISRDNAKNTVYFQMNSLKPEDTAVYYCAATGLYNVTSPYSYKYDYWGQGTQVTVSS”, the “polyreactivity (PSR sort gate)” value was “low polyreactivity”. For “QVQLVESGGCLVQAGGSLRLIWDASGSIFKRYAMGWYRQAPGKERELVAAISYSGGSTYYADSVKGRFTISRDNAKNTVYLQMNSLKPEDTAVYYCAKRSTSRGYDYWGQGTQVTLSS”, the “polyreactivity (PSR sort gate)” value was “high polyreactivity”.
